Some results are limits rather than exact numbers.

The source of these data is US20060073576A1.

In the assay the target is gp120 (strain not stated). The assay can be described thus: competitive ELISA.

Take “CD4M8 (double mutant of CD4M3: Gln20Ala, Thr25Ala) (designed binder)”: the fold increase in binding affinity over CD4M3 is > 10 fold.
